Reference: US20140170171A1

How the values were obtained:
[1] = biological target: TGF-beta receptors on mink lung epithelial cells (ATCC CCL-64) (mink); test: cell-based or functional assay
[2] = biological target: total mouse IgG (Sigma-Aldrich) (mouse); test: 20 ng TGF-beta + 1 ug soluble total mouse IgG, PBS, room temperature, 5 min; Sepharose G-50 spin column eluate assayed by TGF-beta ELISA
[3] = biological target: Mouse IgG2a (eBioscience) (mouse); test: Sephadex G-50 gel filtration of the TGF-beta/IgG mixture (1:10 molar), fractions assayed by TGF-beta ELISA
[4] = biological target: Mouse IgG1 (eBioscience) (mouse); test: as above
[5] = biological target: total mouse IgG (Sigma-Aldrich) (mouse); test: 20 ng TGF-beta + 1 ug soluble total mouse IgG, 0.5x PBS with NaOH to pH 11, room temperature, 5 min; Sepharose G-50 spin column eluate assayed by TGF-beta ELISA
[6] = biological target: total mouse IgG (Sigma-Aldrich) (mouse); test: 20 ng TGF-beta + 1 ug soluble total mouse IgG, PBS, 42 C, 5 min; Sepharose G-50 spin column eluate assayed by TGF-beta ELISA
[7] = biological target: rat total IgG (Sigma-Aldrich) (rat); test: ELISA, rat total IgG on plate, 10 ng TGF-beta in 100 uL PBS, 18 h 4 C, bound TGF-beta detected with TGF-beta 1 ELISA kit
[8] = biological target: rat total IgG (Sigma-Aldrich) (rat); test: ELISA, rat total IgG on plate, 10 ng TGF-beta in 100 uL 10% glycerol in 0.1M Tris pH 7.4, 18 h 4 C, bound TGF-beta detected with TGF-beta 1 ELISA kit
[9] = biological target: rat total IgG (Sigma-Aldrich) (rat); test: ELISA, rat total IgG on plate, 10 ng TGF-beta in 100 uL 0.1M Tris pH 7.4 (0 mM NaCl), 18 h 4 C, bound TGF-beta detected with TGF-beta 1 ELISA kit
[10] = biological target: rat total IgG (Sigma-Aldrich) (rat); test: ELISA, rat total IgG on plate, 10 ng TGF-beta in 100 uL 10% glycerol in PBS, 18 h 4 C, bound TGF-beta detected with TGF-beta 1 ELISA kit

| Substance | Cell Viability (OD450/Control OD450) at 0.25 pg/mL TIGG (OD450/Control OD450) [1] | Cell Viability (OD450/Control OD450) at 2.5 pg/mL TIGG (OD450/Control OD450) [1] | Cell Viability (OD450/Control OD450) at 25 pg/mL TIGG (OD450/Control OD450) [1] | Cell Viability (OD450/Control OD450) at 250 pg/mL TIGG (OD450/Control OD450) [1] | Cell Viability (OD450/Control OD450) at 2500 pg/mL TIGG (OD450/Control OD450) [1] | further results |
| --- | --- | --- | --- | --- | --- | --- |
| Dissociated (Treated) TIGG | 0.621 | 0.645 | 0.651 | 0.651 | 0.616 |  |
| purified mouse TIGG (Transforming Growth Factor-beta-bound IgG), intact | 0.965 | 0.924 | 0.897 | 0.817 | 0.678 |  |
| Transforming growth factor-beta 1 (Peprotech) (from UniProt P01137 279-390) (ligand) |  |  |  |  |  | Net Absorbance (450) (absorbance (450)) [2]: 0.193; percent of TGF-beta eluting in the IgG-bound fraction [3]: 40 to 50%; percent of TGF-beta eluting in the IgG-bound fraction [4]: 40 to 50%; Net Absorbance (450) (absorbance (450)) [5]: 0.558; Net Absorbance (450) (absorbance (450)) [6]: 0.117 |
| TGF-beta (Leinco Technologies, St. Louis, Mo.) (ligand) |  |  |  |  |  | Net Absorbance (450) (absorbance (450)) [7]: 0.18; Net Absorbance (450) (absorbance (450)) [8]: 0.7; Net Absorbance (450) (absorbance (450)) [9]: 1.02; Net Absorbance (450) (absorbance (450)) [10]: 0 |
